Assay results taken from patent publication US20260116991A1 (HAINAN SIMCERE ZAIMING PHARMACEUTICAL, published 2026).
Numbering of substitutions follows the chain as printed.

B1: F1.42.8 (antibody, human IgG1, kappa, V domains shown)
VH: HVQLQQPGAELVKPGASVKLSCKASGYTFTSYWMHWVRQRPGQGLEWIEMIHPNSGSTNYNEKFKSKATLTVDKSSSTAYMQLSSLTSEDSAVYYCARGNYNSSLYAMDYWGQGTSVTVSS
VL: DIQMTQTTSSLSASLGDRVTISCSASQGISNYLNWYQQKPDGTVKLLIYYASNLHSGVPSRFSGSGSGTAYSLTISNLEPEDIATYYCQQYSILPYTFGGGTKLEIKR
notes: Human-murine chimeric antibody
B2: F1.73.9 (antibody, human IgG1, kappa, V domains shown)
VH: QVQLKQSGAELVRPGASVKLSCKASGYTFTDYYINWVKQRPGQGLEWIARIYPGSGNTYYNEKFKGKATLTAEKSSSTAYMQFSSLTSEDSAVYFCACSTYYTMDYWGQGTSVTVSS
VL: QIVLTQSPAIMSASLGERVTMTCTASSGVSSSYLHWYQQKPGSSPKLWIYTTSNLASGVPARFSGSGSGTSYSLTISSMEAEDAATYYCHQYHRSPYTFGGGTKLEIKR
notes: as for B1
B3: F1.3.9 (antibody, human IgG1, kappa, V domains shown)
VH: QVQLQQPGTELVKPGASVKLSCKASGYTFTSYWIHWVKQRPGQGLEWIGNINPPNAGTNYNEKFKSKATLTVDKSSSTAYMQLSSLTSEDSAVYYCARGRWLLHDYWGQGTTLTVSS
VL: DIQMTQSPASLSISVGETVTITCRASENIYSNLAWYQQKQGKSPQLLVYGTKNLAEGVPSRFSGSGSGTQYSLKINSLQSEDFGNYYCQHFWGTPYTFGGGTKLEILR
notes: as for B1
B4: F1.9.19 (antibody, human IgG1, kappa, V domains shown)
VH: DVQLQESGPGLVKPSQSLSLTCSVTGYSITSGYYWNWIRQFPGNRLEWMAYISYDGINNYNPSLKNRISIARDTSTNQFFLKLNSVTSEDTATYYCATTTEVALFDHWGQGTTLTVSS
VL: DVLLTQTPLSLPVSLGDQASISCRSSQNIVHGNGNTYLEWFLQKPGQSPKLLIYKVSNRFSGVPDRFSGSGSGTDFTLKISRVEAEDLGLYYCFQASHVPWTFGGGTKLEIKR
notes: as for B1
B5: F1.62.9 (antibody, human IgG1, kappa, V domains shown)
VH: QVQLQQSDAELVKPGASVKISCKVSGYIFTDHTIHWMKQRPEQGLEWIGYIYPRDGSIKYNENFKGKATLTADKSSSATYMQLNSLTSEDSAVYFCARPIYYDYAYYFDYWGQGTTLTVSS
VL: DVVMTQSPLSLPVSLGDQASISCRSRQSLVHSNGNTYLHWYLQKPGQSPKVLIYKVSNRFSGVPDRFSGSGSGTDFTLKISRVEAEDLGVYFCSQSTHVPYTFGGGTKLEIKR
notes: as for B1
B6: F1.153.1 (antibody, human IgG1, kappa, V domains shown)
VH: QIQLVQSGPELKKPGETVKISCKASGYTFTTAGMQWVQKMPGKGFKWIGWINTHSGEPQYAEDFKGRFAFSLETSASTAYLQISNLKNEDTATYFCARSFYYHGSSFFYFDYWGQGTTLTVSS
VL: DIVMTQSQKFMSTTVGDRVSITCKASQNVGTAVAWYQQKPGQSPKLLIYSASNRYTGVPDRFTGSGSGADFTLTISNMQSEDLADYFCQQYSRYPLTFGAGTKLELKR
notes: as for B1
B7: F2.23.8 (antibody, human IgG1, kappa, V domains shown)
VH: QVQLQQSGAELVRPGASVKLSCKASGYTFTDYEMHWVKQTPVHGLEWFGAIDPETGGTAYNQKFRAKATLTADKSSSTAYMELRSLTSEDSAVYYCTRFYSFAYWGQGTLVTVSA
VL: B5 VL with S7T, R26S, H39Q, V51L, S81T, G105S
notes: as for B1
B8: F2.39.2 (antibody, human IgG1, kappa, V domains shown)
VH: B7 VH with L20V, V37M, F48I, I51N, D52E, G57R, T58S, N61D, R65K, A66G
VL: B5 VL with S7T, R26S, S28G, S32N, V51L, S96N, Y101P
notes: as for B1
B9: F2.92.1 (antibody, human IgG1, kappa, V domains shown)
VH: B7 VH with T28I, T30S, M34I, W47C, F48I, I51V, R65K, A66G, Y95F, A115T
VL: B5 VL with S7T, A19G, R26S, H39Q, V51L, S94C, P100L, Y101P
notes: as for B1
B10: hAb005LH3L1 (antibody, human IgG1, V domains shown)
VH: EVQLVQSGAEVKKPGASVKVSCKASGYTFTDYEMHWVRQAPGQGLEWIGAIDPETGNTAYIQKFKGRATLTTDKSTSTAYMELRSLRSDDTAVYYCTRFYSYSHWGQGTTVTVSS
VL: DIVMTQTPLSLPVTPGEPASISCRSSQSLVHSNGNTYLHWYLQKPGQSPQLLIYKVSNRFSGVPDRFSGSGSGTDFTLKISRVEAEDVGVYYCSQNTHVPPTFGGGTKVEIK
notes: Humanized F3.54.12; VH H3 + VL L1; expressed as human IgG1
B11: hAb005LH3L1a (antibody, human IgG1, V domains shown)
VH: B10 VH
VL: B10 VL with N33D
notes: Humanized F3.54.12; VH H3 + VL L1a; expressed as human IgG1
B12: hAb005LH3L1b (antibody, human IgG1, V domains shown)
VH: B10 VH
VL: B10 VL with G34R
notes: Humanized F3.54.12; VH H3 + VL L1b; expressed as human IgG1
B13: GC33 IgG (antibody, V domains shown)
VH: QVQLVQSGAEVKKPGASVKVSCKASGYTFTDYEMHWVRQAPGQGLEWMGALDPKTGDTAYSQKFKGRVTLTADKSTSTAYMELSSLTSEDTAVYYCTRFYSYTYWGQGTLVTVSS
VL: DVVMTQSPLSLPVTPGEPASISCRSSQSLVHSNRNTYLHWYLQKPGQSPQLLIYKVSNRFSGVPDRFSGSGSGTDFTLKISRVEAEDVGVYYCSQNTHVPPTFGQGTKLEIKR
notes: Control antibody expressed as complete IgG; also called codrituzumab

How the values were obtained:
[1] = target: T1, monkey GPC3 on HEK293T-monkey GPC3 cells (monkey); assay: FACS on HEK293T-monkey GPC3 cells;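 also: flow cytometry binding of test antibodies to the cells, read as mean fluorescence intensity, with half-maximal concentration taken from fitted curves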
T1 construct: whole, on cells

monkey GPC3-His protein [2] = target: T2, monkey GPC3-His protein (monkey); assay: ELISA, monkey GPC3-His coated;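 also: Plate-coated antigen at 1 µg/mL, antibody binding 2 h at 37 °C, detected with HRP-labeled secondary antibody and TMB, absorbance at 450 nm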
T2 construct: Bought recombinant protein; also called monkey GPC3 protein

human GPC3-His protein = target: T3, human GPC3-His protein (human, UniProt P51654 25-559); assay: SPR, antibody captured on Protein A chip, human GPC3-His analyte;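 also: measured at 25 °C flow cell, human GPC3-His injected at five concentrations up to 200 nM, 240 s association, up to 600 s dissociation, double-referenced, fitted to Langmuir 1:1 model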
T3 construct: also called human GPC3 protein; not shown: His tag

monkey GPC3-His protein [3] = target: T2, monkey GPC3-His protein; assay: SPR, antibody captured on Protein A chip, monkey GPC3-His analyte;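 also: run at 25 °C with 240 s association and up to 600 s dissociation, double-referenced, kinetics fitted to a 1:1 Langmuir binding model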
Method: The flow cell was set at 25° C. The sample block was set at 16° C. Both were pretreated with the running buffer. In each cycle, first, the antibody to be tested was captured using the Protein A chip, and then a single concentration of GPC3 antigen protein was injected. […] The association was determined by injecting different concentrations of human GPC3-His in the solution and maintaining for 240 s, wherein the flow rate was 30 μL/min, and the protein was diluted at a 1:1 dilution ratio from 200 nM to obtain 5 concentrations in total. The dissociation phase was monitored for up to 600 s and triggered by switching from the sample solution to the running buffer. The surface was regenerated by washing with 10 mM glycine solution (pH 1.5) at a flow rate of 30 μL/min for 30 s. The difference in bulk refractive index was corrected by subtracting the responses obtained from the goat anti-human Fc surface. Blank injections (double reference) were also subtracted. To calculate the apparent KD and other kinetic parameters, the Langmuir 1:1 model was used.

[4] = target: biotinylated labeled human GPC3 protein (produced in-house) (human, UniProt P51654 25-559, limits assumed, biotinylated (Dojindo, Cat. No. LK03); sites not stated); assay: ELISA, biotinylated human GPC3 protein
[5] = target: T4, human GPC3 on CHO-K1-human GPC3 cells (CHOK1-hGPC3.2B5) (human, UniProt P51654 25-554); assay: FACS, CHOK1-hGPC3.2B5 cells;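 also: flow cytometry of humanized antibodies binding to the cells over one hour in the cold, read as cell mean fluorescence intensity, with EC50 obtained by curve fitting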
T4 construct: whole, on cells

Row | Binder | OD450 at 0.0001 nM (monkey GPC3-His protein [2]) [OD450] | OD450 at 0.001 nM (monkey GPC3-His protein [2]) [OD450] | OD450 at 0.01 nM (monkey GPC3-His protein [2]) [OD450] | OD450 at 0.1 nM (monkey GPC3-His protein [2]) [OD450] | OD450 at 1 nM (monkey GPC3-His protein [2]) [OD450] | OD450 at 10 nM (monkey GPC3-His protein [2]) [OD450] | OD450 at 100 nM (monkey GPC3-His protein [2]) [OD450] | Kd (human GPC3-His protein) [nM] | koff (human GPC3-His protein) [s⁻¹] | kon (human GPC3-His protein) [M⁻¹ s⁻¹] | Kd (monkey GPC3-His protein [3]) [nM] | koff (monkey GPC3-His protein [3]) [s⁻¹] | kon (monkey GPC3-His protein [3]) [M⁻¹ s⁻¹] | EC50 [5] [nM] | Max MFI [5] [MFI] | other results
1 | B1 | 0.05 | 0.08 | 0.35 | 1.61 | 2.31 | 2.46 | 2.67 | – | – | – | – | – | – | – | – | EC50 [1]: 0.27 nM; Max MFI [1]: 7620 MFI
2 | B2 | 0.05 | 0.06 | 0.18 | 0.73 | 1.14 | 1.27 | 1.47 | – | – | – | – | – | – | – | – | EC50 [1]: 0.32 nM; Max MFI [1]: 5700 MFI
3 | B3 | 0.04 | 0.05 | 0.16 | 0.56 | 1.52 | 1.7 | 1.82 | 2.54 | 7.28e-05 | 28700 | 1.24 | 4.74e-05 | 38200 | – | – | –
4 | B4 | 0.04 | 0.25 | 0.3 | 0.72 | 1.39 | 1.53 | 1.5 | 9.04 | 0.000314 | 34700 | 6.61 | 0.000317 | 48000 | – | – | –
5 | B5 | 0.21 | 0.36 | 0.39 | 0.56 | 0.64 | 0.66 | 1.06 | 46 | 0.00129 | 28000 | 44 | 0.00156 | 35500 | – | – | –
6 | B6 | 0.27 | 0.36 | 0.49 | 1.06 | 1.61 | 1.98 | 2 | 0.92 | 6.22e-05 | 67600 | 0.414 | 4.27e-05 | 103000 | – | – | –
7 | B7 | 0.27 | 0.28 | 0.58 | 1.8 | 2.22 | 2.24 | 2.25 | 20.4 | 0.00327 | 161000 | 13.5 | 0.0038 | 281000 | – | – | –
8 | B8 | 0.21 | 0.34 | 0.66 | 1.98 | 2.36 | 2.28 | 2.35 | 6.97 | 0.0021 | 302000 | 4.28 | 0.00219 | 512000 | – | – | –
9 | B9 | 0.23 | 0.27 | 0.65 | 1.9 | 2.3 | 2.24 | 2.34 | 0.6 | 0.000242 | 404000 | 0.353 | 0.000221 | 628000 | – | – | –
10 | B10 | – | – | – | – | – | – | – | – | – | – | – | – | – | 0.734 | 4700 | OD450 at 0.0008 nM [4]: 0.079 OD450; OD450 at 0.004 nM [4]: 0.162 OD450; OD450 at 0.02 nM [4]: 0.441 OD450; OD450 at 0.11 nM [4]: 0.715 OD450; OD450 at 0.53 nM [4]: 0.923 OD450; OD450 at 2.67 nM [4]: 1.1 OD450; OD450 at 13.33 nM [4]: 1.07 OD450; OD450 at 66.66 nM [4]: 1.12 OD450
11 | B11 | – | – | – | – | – | – | – | – | – | – | – | – | – | 133 | 136 | OD450 at 0.0008 nM [4]: 0.047 OD450; OD450 at 0.004 nM [4]: 0.049 OD450; OD450 at 0.02 nM [4]: 0.049 OD450; OD450 at 0.11 nM [4]: 0.05 OD450; OD450 at 0.53 nM [4]: 0.058 OD450; OD450 at 2.67 nM [4]: 0.101 OD450; OD450 at 13.33 nM [4]: 0.153 OD450; OD450 at 66.66 nM [4]: 0.402 OD450
12 | B12 | – | – | – | – | – | – | – | – | – | – | – | – | – | 0.558 | 4740 | OD450 at 0.0008 nM [4]: 0.074 OD450; OD450 at 0.004 nM [4]: 0.169 OD450; OD450 at 0.02 nM [4]: 0.426 OD450; OD450 at 0.11 nM [4]: 0.838 OD450; OD450 at 0.53 nM [4]: 0.952 OD450; OD450 at 2.67 nM [4]: 1.1 OD450; OD450 at 13.33 nM [4]: 1.03 OD450; OD450 at 66.66 nM [4]: 1.04 OD450
13 | B13 | – | – | – | – | – | – | – | – | – | – | – | – | – | 2.19 | 17000 | OD450 at 0.0004 nM [4]: 0.054 OD450; OD450 at 0.002 nM [4]: 0.067 OD450; OD450 at 0.011 nM [4]: 0.127 OD450; OD450 at 0.056 nM [4]: 0.442 OD450; OD450 at 0.28 nM [4]: 0.993 OD450; OD450 at 1.39 nM [4]: 1.5 OD450; OD450 at 6.94 nM [4]: 1.36 OD450; OD450 at 34.72 nM [4]: 1.3 OD450
